The target of assay [1] is amyloid β 1-42 protein (Aβ 1-42) (UniProt P05067). In words: SPR competition, Biacore J; Aβ 1-42 on a CM5 chip saturated with 3.4A10 (competitor), then 3.4A10 and 4G8 mixed 20:1. More on the design: unit not given here.
For another assay, the target named is T1, Aβ 25-35 (UniProt P05067 696-706).
T1 construct: domain: Aβ 25-35; Positions count on Aβ; also called product code 4309-v
T1 peptide (looked up): GSNKGAIIGLM
The assay is described as follows: dot blot of peptides on nitrocellulose.

For the next assay, the target named is T2, Aβ 34-42 (UniProt P05067 705-713).
T2 construct: domain: Aβ 34-42; Positions count on Aβ
T2 peptide (looked up): LMVGGVVIA
The assay is described as follows: dot blot of peptides on nitrocellulose.

The values that follow come from patent WO2009104736A1 (dated 2009).

amyloid β 1-42 protein (Aβ 1-42), sequence (P05067 672-713 limits assumed): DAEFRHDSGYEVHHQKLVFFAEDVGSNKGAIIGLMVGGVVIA

“mouse anti-human Aβ monoclonal antibody 4G8”: the enhanced reaction (response level) in assay [1] was > 2000.

B1: monoclonal antibody 3.4A10 (antibody of Example 1) (antibody, V domains shown)
VH: EVQLLESGGGLVQPGGSRKLSCAASGFTFSSFGVHWFRQAPEKGLEWVAYISSGSSTIYYADTVKGRFTISRDNPKNTLFLQMASLRSEDTAMYYCAPYGSSPFPYWGQGTLVTVST
VL: ELQLTQSPASLAVSLGQRATISCRASESVDSYGYNFMHWYQQKPGQPPKLLIYLASNLESGVPARFSGSGSRTDFTLTIDPVEADDAATYYCQQNNEDPLTFGAGTKLELKR
notes: Mouse IgG2b from a hybridoma, purified from ascites; also called TAPIR antibody
For the molecule B1, the binding result with Aβ 25-35 and with Aβ 34-42 was “no binding (tested: 1 μg/ml antibody)” in each case.
